Test results taken from patent US20070093443A1 (CATALYST BIOSCIENCES, published 2007).
Residue numbers refer to the chain shown, from its start. Names may count otherwise.

B1: modified MT-SP1 CB155 (Y146D/K224F) protease domain (enzyme)
chain: VVGGTDADEGEWPWQVSLHALGQGHICGASLISPNWLVSAAHCYIDDRGFRYSDPTQWTAFLGLHDQSQRSAPGVQERRLKRIISHPFFNDFTFDYDIALLELEKPAEYSSMVRPICLPDASHVFPAGKAIWVTGWGHTQDGGTGALILQKGEIRVINQTTCENLLPQQITPRMMCVGFLSGGVDSCQGDSGGPLSSVEADGRIFQAGVVSWGDGCAQRNFPGVYTRLPLFRDWIKENTGV
B2: modified MT-SP1 CB483 (I41T/Y146D/G151L/Q175D/K224N) protease domain (enzyme)
chain: B1 chain with I26T, G145L, Q169D, F221N
B3: modified MT-SP1 CB421 (I41T/Y146D/Q175D/K224F) protease domain (enzyme)
chain: B1 chain with I26T, Q169D
B4: modified MT-SP1 CB422 (I41T/Y146E/Q175D/K224N) protease domain (enzyme)
chain: B1 chain with I26T, D141E, Q169D, F221N
B5: modified MT-SP1 CB476 (I41T/Y146D/Q175D/K224L) protease domain (enzyme)
chain: B1 chain with I26T, Q169D, F221L
B6: modified MT-SP1 CB477 (I41T/Y146D/Q175D/K224R) protease domain (enzyme)
chain: B1 chain with I26T, Q169D, F221R
B7: modified MT-SP1 CB478 (I41T/Y146D/Q175D/K224N) protease domain (enzyme)
chain: B1 chain with I26T, Q169D, F221N
B8: modified MT-SP1 CB480 (I41T/Y146D/G151L/Q175D/K224F) protease domain (enzyme)
chain: B1 chain with I26T, G145L, Q169D
B9: modified MT-SP1 CB481 (I41T/Y146D/G151L/Q175D/K224L) protease domain (enzyme)
chain: B1 chain with I26T, G145L, Q169D, F221L
B10: modified MT-SP1 CB482 (I41T/Y146D/G151L/Q175D/K224R) protease domain (enzyme)
chain: B1 chain with I26T, G145L, Q169D, F221R
B11: modified MT-SP1 CB485 (I41T/Y146E/Q175D/K224L) protease domain (enzyme)
chain: B1 chain with I26T, D141E, Q169D, F221L
B12: modified MT-SP1 CB486 (I41T/Y146E/Q175D/K224R) protease domain (enzyme)
chain: B1 chain with I26T, D141E, Q169D, F221R
B13: modified MT-SP1 CB487 (I41T/Y146E/G151L/Q175D/K224N) protease domain (enzyme)
chain: B1 chain with I26T, D141E, G145L, Q169D, F221N
B14: modified MT-SP1 CB488 (I41T/Y146E/G151L/Q175D/K224F) protease domain (enzyme)
chain: B1 chain with I26T, D141E, G145L, Q169D
B15: modified MT-SP1 CB489 (I41T/Y146E/G151L/Q175D/K224L) protease domain (enzyme)
chain: B1 chain with I26T, D141E, G145L, Q169D, F221L
B16: modified MT-SP1 CB490 (I41T/Y146E/G151L/Q175D/K224R) protease domain (enzyme)
chain: B1 chain with I26T, D141E, G145L, Q169D, F221R

Experiments:
Complement C2 (human) = target: T1, Complement C2 (human) (human, UniProt P06681 21-752); test: cell-based or functional assay
T1 sequence: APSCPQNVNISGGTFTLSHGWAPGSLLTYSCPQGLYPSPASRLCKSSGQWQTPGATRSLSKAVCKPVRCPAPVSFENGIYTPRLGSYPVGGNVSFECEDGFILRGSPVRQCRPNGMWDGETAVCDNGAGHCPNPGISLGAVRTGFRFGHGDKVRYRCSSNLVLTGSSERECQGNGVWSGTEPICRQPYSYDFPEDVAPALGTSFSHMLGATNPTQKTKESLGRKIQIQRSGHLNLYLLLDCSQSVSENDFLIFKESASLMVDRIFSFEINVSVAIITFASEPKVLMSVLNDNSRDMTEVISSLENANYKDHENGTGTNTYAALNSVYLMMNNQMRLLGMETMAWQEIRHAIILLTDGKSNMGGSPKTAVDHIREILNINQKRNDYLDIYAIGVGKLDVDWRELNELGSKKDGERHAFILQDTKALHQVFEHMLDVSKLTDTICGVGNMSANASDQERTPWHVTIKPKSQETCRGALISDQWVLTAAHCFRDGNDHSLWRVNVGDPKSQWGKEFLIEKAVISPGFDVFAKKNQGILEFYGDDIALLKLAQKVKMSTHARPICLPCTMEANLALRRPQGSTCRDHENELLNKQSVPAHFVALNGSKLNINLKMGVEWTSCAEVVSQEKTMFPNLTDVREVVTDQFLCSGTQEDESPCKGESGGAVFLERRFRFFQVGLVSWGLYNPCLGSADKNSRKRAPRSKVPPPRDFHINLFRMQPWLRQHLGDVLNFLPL

M84R ecotin = target: T2, M84R ecotin (UniProt P23827 21-162); test: active site titration of purified CB155 with M84R ecotin, residual Ac-RQAR-AMC activity
T2 construct: Position 84 is probably counted on mature ecotin, not on the precursor entry; also called ecotin M84R
Procedure: The purified protein was assayed for specific activity, purity, and endotoxin levels. The specific activity or amount of active protease in each prep was determined by active site titration by incubation with an inhibitor that binds in the active site of the functional protease at varying concentrations followed by addition to a fluorogenic substrate for measurement of substrate proteolysis. The amount of active enzyme was calculated from a plot of the residual protease activity against the inhibitor concentration where the intercept corresponds to the concentration of active protease. […] Enzyme activity was monitored at 30° C. in the presence of 40 μM Ac-RQAR-AMC in assay buffer containing 50 mM Tris pH 8.0, 50 mM NaCl, and 0.01% Tween-20 (for trypsin activity, 10 mM CaCl2 was added) on a Gemini XPS spectrafluorimeter (Excitation: 380 nm; Emission: 450 nm; Cut-off: 435 mn). Purity of the protein preparation was assessed by resolution of the protein product on SDS-PAGE followed by staining with Coomassie Blue. […] The level of endotoxin in each prep was determined by Liumlus Amebocyte Lysate Chromo-LAL assay (Associated of Cape Cod) according to the manufacturer's protocol with the following modifications. […]

[1] = target: T3, alpha-2 macroglobulin (in human plasma) (human, UniProt P01023 24-1474); test: Ac-RQAR-AMC activity of protease after 5 min in human citrated plasma, with and without M84R ecotin
T3 construct: Not purified: the endogenous protein of the plasma
T3 sequence (looked up): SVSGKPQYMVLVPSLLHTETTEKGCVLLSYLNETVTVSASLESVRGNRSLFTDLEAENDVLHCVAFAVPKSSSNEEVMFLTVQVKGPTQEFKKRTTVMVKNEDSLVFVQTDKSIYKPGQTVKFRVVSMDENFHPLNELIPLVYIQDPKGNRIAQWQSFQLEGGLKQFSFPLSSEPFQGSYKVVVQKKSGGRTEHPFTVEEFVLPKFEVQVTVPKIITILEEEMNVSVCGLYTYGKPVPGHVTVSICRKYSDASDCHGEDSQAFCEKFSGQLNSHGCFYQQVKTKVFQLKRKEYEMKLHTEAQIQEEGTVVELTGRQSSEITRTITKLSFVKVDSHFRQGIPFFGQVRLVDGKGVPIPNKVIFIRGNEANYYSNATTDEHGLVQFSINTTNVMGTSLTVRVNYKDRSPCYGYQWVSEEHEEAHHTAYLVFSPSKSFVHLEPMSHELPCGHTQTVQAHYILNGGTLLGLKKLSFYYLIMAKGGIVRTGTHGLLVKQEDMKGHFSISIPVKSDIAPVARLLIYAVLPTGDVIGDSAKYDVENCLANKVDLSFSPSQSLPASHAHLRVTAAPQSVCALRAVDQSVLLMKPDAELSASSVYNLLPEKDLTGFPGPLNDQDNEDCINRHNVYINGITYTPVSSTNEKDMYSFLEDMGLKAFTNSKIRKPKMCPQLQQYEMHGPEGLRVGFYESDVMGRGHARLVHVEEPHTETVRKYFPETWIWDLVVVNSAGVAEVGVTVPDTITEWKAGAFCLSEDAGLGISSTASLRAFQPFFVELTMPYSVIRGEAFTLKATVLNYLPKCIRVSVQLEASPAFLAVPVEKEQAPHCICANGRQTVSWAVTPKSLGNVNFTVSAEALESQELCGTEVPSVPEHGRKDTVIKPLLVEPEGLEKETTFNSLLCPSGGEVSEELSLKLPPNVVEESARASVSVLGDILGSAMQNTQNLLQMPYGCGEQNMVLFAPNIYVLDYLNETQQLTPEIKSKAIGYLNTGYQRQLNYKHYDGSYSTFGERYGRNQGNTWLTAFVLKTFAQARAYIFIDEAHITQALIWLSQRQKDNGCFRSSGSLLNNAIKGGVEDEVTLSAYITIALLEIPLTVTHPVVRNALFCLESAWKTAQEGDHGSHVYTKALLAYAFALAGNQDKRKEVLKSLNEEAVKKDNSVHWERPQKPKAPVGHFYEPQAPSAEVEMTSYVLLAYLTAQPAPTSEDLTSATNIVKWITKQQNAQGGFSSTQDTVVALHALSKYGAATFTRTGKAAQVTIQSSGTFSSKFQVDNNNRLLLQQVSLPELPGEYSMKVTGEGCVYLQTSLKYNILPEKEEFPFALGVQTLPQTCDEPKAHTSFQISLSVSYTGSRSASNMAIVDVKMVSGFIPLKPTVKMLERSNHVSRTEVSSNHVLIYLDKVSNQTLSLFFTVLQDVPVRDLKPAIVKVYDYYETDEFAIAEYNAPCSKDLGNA
Procedure: In addition, the percent protease unbound by alpha-2 macroglobulin (a2M) also was determined. Inactivation of a protease by alpha-2 macroglobulin traps the protease in a complex where it is still able to turn over small fluorescent substrates, but unable to access large protein substrates. This property of alpha-2 macroglobulin complicates the assessment of a proteases activity in plasma. To determine the actual activity of the free, uncomplexed protease in plasma, a two step measurement is required. First, the sample's activity on fluorescent substrates is measured. […] The percent unbound by alpha-2 macroglobulin activity is the percentage of the plasma residual activity that is inhibited by the addition of the ecotin. Briefly, in a 0.2 mL PCR tube, 1 μL 10× protease was mixed with 9 μL human plasma in citrate (Innovative Research). A uninhibted control also was prepeared containing 1 μL 10× protease mixed with 9 μL PBST. The mixtures were incubated for 5 minutes at 37° C. The samples were diluted 250 fold in PBST and stored on ice. Two 50 μL aliquots for each sample were transferred to an opaque assay plate (Costar #3694) containing 2 μL PBST or 2 μL 520 nM M84R ecotin. The plates were incubated 10 minutes at room temperature. Five microliters 0.4 mM Ac-RQAR-AMC substrate was added and the fluorescence was measured over time with a SpectraMax M5 spectrafluorometer (Molecular Devices) set to read every 20 seconds for 30 minutes at 30° C. (Ex: 380 nm, EM: 450 nm, Cut-off: 435 nm). The percent unbound by alpha-2 macroglobulin was calculated with the following formula: (1-([(Protease in plasma/Protease in PBST)−(Protease in plasma+ecotin/Protease in PBST)]/(Protease in plasma/Protease in PBST)))*100.

Binder | % Unbound by a2M [1] | further results
B1 |  | IC50 based on gel densitometry of C2 cleavage products (purified C2) (Complement C2 (human)): 2.2 nM; IC50 for hemolysis in C2 depleted serum supplemented with protease-treated C2 (Complement C2 (human)): 17 nM; IC50 of the proteases for cleavage of C2 (Western blot densitometry, 5% human plasma, 1 h 37 C) (Complement C2 (human)): 18.4 nM; binding result (M84R ecotin): binds
B2 | 73% | 
B3 | 84% | 
B4 | 83% | 
B5 | 89% | 
B6 | 67% | 
B7 | 89% | 
B8 | 88% | 
B9 | 72% | 
B10 | 10% | 
B11 | 82% | 
B12 | 44% | 
B13 | 53% | 
B14 | 85% | 
B15 | 58% | 
B16 | 0% | 
